Target: C-terminus of human Hsp90α (residues 566-732) (Homo sapiens (Human), UniProt P07900)
Assay: SEC-MALS-QELS

Sequence of C-terminus of human Hsp90α (residues 566-732) (P07900 566-732): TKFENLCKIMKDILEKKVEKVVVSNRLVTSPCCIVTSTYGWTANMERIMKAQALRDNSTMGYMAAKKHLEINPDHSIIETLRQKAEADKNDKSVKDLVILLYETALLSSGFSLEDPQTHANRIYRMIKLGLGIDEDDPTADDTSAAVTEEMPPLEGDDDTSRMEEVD

- binding result: binds
B1: Sorghum bicolor RPAP3 (RNA polymerase II-associated protein 3), isoform 2 (protein)
chain: MEYKARSSGTSGTSTKSFRDLYNMKYSSYLNDEPMPDATSEKEQGNEYFKQKKFADAIECYSRSIGLSPTAVTFANRAMAYLKLRRFKEAEDDCTEALNLDDRYIKAYSRRITARKELGKLKEAMEDAEFAISLDPNNPELRKQYSEIKALHMEKMAKKVPAPAKRAVSGIAKTADVTSHPPTISQKDTIMEVDPPVGDAMKIRESASGRSNGGSGVIINDNTIQTQGRDANLKPGPEVSVQDLAARAASRYMASTVKSVKTPKTAYDFEVSWRALSDDTAQQIQLLKSIPPASLPEIFKNALSAPFLIDIVKCSASIFRDDTALAVSILENLARVPRFDLIIMCLSSMHKSELRKIWDQVFLAEKASADDQMEALRQLRGRYIPGGWQDSMLTSS
